# The DeepSol protein solubility set
# Test: soluble on expression in E. coli; label from the status in PepcDB or PDB records
row,Sequence,soluble on expression in E. coli
1,SGLIGEGLKDVKSAAGDTRVDNFADRLAALSQAAQPARAVAAPASAPLMNQPLAMHQSGWTEGIVDRVMYLSSQNLKTADIKLEPAELGRLDIRINMAPEQQTQVTFMSAHMGVRDALESQMSKLRESFVQQGLGNVDVNVSDQS,not soluble
2,MGSDKIHHHHHHMLQLSEFEPEVLYAFPFRNEHPGTYVYHQHDFLELSIMLEGYSDYNVEGQWRRVVAGQALLFNPGIHHQETQPPHTQSLQLHIGFRHIALPGQVPNHLPFKDALISLDDYRAEFMANAQRIVAESQRPTAFGHALLIQAMVIEQLCWLLRSLPENSVSNDYTELHQGNVSRDQQALVNAATYYLDVHYNEDLTLGTVAASLHVSAAYLSRTFKAIQGETPISYLTRLRMQRAKQLLMQEAITVRQVAHAVGYQDPYYFSKVFKRYFGAAPTLIER,not soluble
3,MHGKLIGVGVGPGDSELLTLRAVNVLRSVPVICAPRSSSERESIALSIVEDILTERRDGCRILDPVFPMTDDRDELESHWDSAARMVAAELEDGRDVAFITLGDPSIYSTFSYLQQRIEDMGFKTEMVPGVTSFTACAATAGRTLVEGDEILLVVPRVDDRFERVLRDVDACVIMKTSRHGRRAMEVVESDPRGKDVVSVANCSMDDEVVERGFASGGGYLATTLVRFREQS,soluble
4,GMSIVGNVENLINGVGELWNKYVKHEFILKMRDGSLPLDIFRYYLIQDGKYVEDMLRALLIASSKGPIDKVTKILNLVFSSRDKGLETHGKLYSKLDISRDVIVKTGYNLINYAYTRHLYYYANLDWNKFLVAWTPCMFGYSIVGDYVIDSPNEVYKTWASFYASTEYKKRIEAILYALDEVSITEDLLNIFINSVRFEIGFWDASLRKDPTVY,soluble
5,MGSDKIHHHHHHMTTTKKTGERLIKKYPNRRLYDTETSTYITLTDVKQLVLEQEDFKVIDAKSSEDLTRSILLQIILEEESGGVPMFSSSMLSQIIRFYGHAMQGMMGTYLEKNIQAFIDIQSKLADQSKNLYENNAMNPEVWSQFMNMQAPMMQGMMTSYIEQSKNMFVQMQEQMQNQAKTMFSSFPFKPATPPGSEPEKK,not soluble
6,MAHHHHHHMDPSVSLEGIVDLTASNFDEHVGKGVPALVEFYAPWCGHCKKMVPEFEKVGQAVKTARDKVLVGKVDATQNRDLAERFGVNGYPTILFFPADSQTKQQYSEAREAAAFLSFLNRQVPGLNIGVPHEHTYAVELTKRNFDAVVMDEAKDALVMFYAPWCGHCKKLHPVFERLATAFKEEADIVIGKLNADDASNGAVRNRYKVDGYPTLAFFQKRSKSEPQYYSGGRSLEELVEYVNERTGKNRLPSGDLSEKVGVNDELSKVLRDMMLKEKSVDEKKQYLEKVKKAAADLTGVEAVHYPRIAEKILQLGAEYVEMELGRIARLKQGDVKGEKRDMLTIRNNILASLKDE,not soluble
7,GEFLISILEAIEPEVVYAGYDNSQPDTTNYLLSSLNRLAGKQMVSVVKWAKALPGFRNLHLDDQMTLIQYSWMSLMAFSLGWRSYKHTNGQMLYFAPDLIFNEERMQQSAMYDLCQGMRQISQEFVRLQVTYEEFLCMKVLLLLSTVPKDGLKSQASFDEMRMNYIKELRRAIAKKENNSSQNWQRFYQLTKLLDSMHDLVGGLLQFCFYTFVQSQALSVEFPEMLVEIISDQLPKVMAGMAKPLLFHKK,soluble
8,MGSDKIHHHHHHMLEELSENVWIAEGTCVSFHGFHGFHGFHGFHGFHGFQYPTRSVVVRLKSGAMWVWSPVKFDQDLADEIESLGTITHLVSPNKIHHLFLADWSSHVPTAKIWGPRSTVNKRRDLVFQPALDHLPPRDWAEDFEQFHVKGSLAMDEILFLHKQSNTLILADFSEHFSDQFLQRHWQPWQRRIGQFWGITEGRGFAPLDWRLSFLNRSHLRTLKQQLLDRQVDHVVMAHGEIARTDGHRFLQRSLAWI,not soluble
